Results: US20220119531A1

Target: human PD-L1 expressed on mammalian cells (human) (UniProt Q9NZQ7)
Test: FACS on PDL1-Raji cells by the text; sheet title 'Cell-Based Binding Raji-PDL1 cells', y axis labelled IL2 (ng/ml); EC50 table under the plot, unit taken from the axis Concentration (nM)

Sequence of human PD-L1 expressed on mammalian cells (human) (Q9NZQ7 19-290): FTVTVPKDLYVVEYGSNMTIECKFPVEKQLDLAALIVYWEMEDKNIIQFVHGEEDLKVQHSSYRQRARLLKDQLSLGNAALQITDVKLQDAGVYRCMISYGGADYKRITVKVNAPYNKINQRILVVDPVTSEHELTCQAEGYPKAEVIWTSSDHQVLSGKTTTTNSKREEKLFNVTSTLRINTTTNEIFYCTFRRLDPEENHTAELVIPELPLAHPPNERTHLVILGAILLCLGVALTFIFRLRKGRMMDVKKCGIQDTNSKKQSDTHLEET

EC50: 890 pM
Substance: Tecentriq (atezolizumab) (antibody)
